Measurements as given in publication PMC3154542 (Growth Factors (Chur, Switzerland), 2011).

B1: recombinant human bone morphogenetic protein 12 (rhBMP12) (ligand, UniProt Q7Z4P5 322-450, looked up)
chain: TALAGTRTAQGSGGGAGRGHGRRGRSRCSRKPLHVDFKELGWDDWIIAPLDYEAYHCEGLCDFPLRSHLEPTNHAIIQTLLNSMAPDAAPASCCVPARLSPISILYIDAANNVVYKQYEDMVVEACGCR
notes: bone morphogenetic protein 12 (BMP12, also known as GDF7), human, mature form; homodimer by non-reducing SDS-PAGE
B2: BMPRII (BMP receptor 2 extracellular domain linked to the human IgG Fc region) (Fc fusion, UniProt Q13873 27-150, looked up)
chain: SQNQERLCAFKDPYQQDLGIGESRISHENGTILCSKGSTCYGLWEKSKGDINLVKQGCWSHIGDPQECHYEECVVTTTPPSIQNGTYRFCCCSTDLCNVNFTENFPPPDTTPLSPPHSFNRDET
notes: BMP receptor type 2 (BMPR2, BMPRII), type II receptor, extracellular domain; printed as 'BMPRII' without '-Fc' in the list of Fc fusion proteins; also called BMPR2; BMPR-2; source: synthesized in-house
B3: ACVR2B-Fc (activin receptor type-2B extracellular domain linked to the human IgG Fc region) (Fc fusion, UniProt Q13705 19-137, looked up)
chain: SGRGEAETRECIYYNANWELERTNQSGLERCEGEQDKRLHCYASWRNSSGTIELVKKGCWLDDFNCYDRQECVATEENPQVYFCCCEGNFCNERFTHLPEAGGPEVTYEPPPTAPTLLT
notes: activin receptor type-2B (ACVR2B), type II receptor, extracellular domain; source: synthesized in-house
B4: recombinant human bone morphogenetic protein 2 (rhBMP2) (ligand, UniProt P12643 283-396, looked up)
chain: QAKHKQRKRLKSSCKRHPLYVDFSDVGWNDWIVAPPGYHAFYCHGECPFPLADHLNSTNHAIVQTLVNSVNSKIPKACCVPTELSAISMLYLDENEKVVLKNYQDMVVEGCGCR
notes: bone morphogenetic protein 2, human, mature domain; homodimer by non-reducing SDS-PAGE; source: CHO cells, purified (as in Wang et al. 1990)
B5: ALK6-Fc (activin receptor-like kinase 6 extracellular domain linked to the human IgG Fc region) (Fc fusion, UniProt O00238 14-126, looked up)
chain: KKEDGESTAPTPRPKVLRCKCHHHCPEDSVNNICSTDGYCFTMIEEDDSGLPVVTSGCLGLEGSDFQCRDTPIPHQRRSIECCTERNECNKDLHPTLPPLKNRDFVDGPIHHR
notes: activin receptor-like kinase 6 (ALK6), type I BMP receptor, extracellular domain; source: synthesized in-house
B6: recombinant human bone morphogenetic protein 13 (rhBMP13) (ligand, UniProt Q6KF10 336-455, looked up)
chain: TAFASRHGKRHGKKSRLRCSKKPLHVNFKELGWDDWIIAPLEYEAYHCEGVCDFPLRSHLEPTNHAIIQTLMNSMDPGSTPPSCCVPTKLTPISILYIDAGNNVVYKQYEDMVVESCGCR
notes: bone morphogenetic protein 13 (BMP13, also known as GDF6), human, mature form; homodimer by non-reducing SDS-PAGE

How the values were obtained:
[1] = target: the molecule itself; assay: non-reducing SDS-PAGE; purified proteins on 12% polyacrylamide gels under non-reducing against reducing (β-mercaptoethanol) conditions, Coomassie blue staining
[2] = target: T1, ALK3-Fc (activin receptor-like kinase 3 extracellular domain linked to the human IgG Fc region) (UniProt P36894 24-152); assay: BLI; receptor extracellular domain-Fc chimeras immobilised on anti-human IgG Fc biosensor tips (ForteBio Octet RED); sixfold serial dilutions of human BMPs in solution; association 10 min, dissociation 30 min; global fit to a 1:1 Langmuir model; conditions: both partners purified
T1 construct: activin receptor-like kinase 3 (ALK3), type I BMP receptor, extracellular domain; source: bought: R&D Systems
T1 sequence (P36894 24-152): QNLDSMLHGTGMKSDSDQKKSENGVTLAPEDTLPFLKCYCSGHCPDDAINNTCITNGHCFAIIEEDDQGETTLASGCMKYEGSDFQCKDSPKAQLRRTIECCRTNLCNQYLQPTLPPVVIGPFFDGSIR

[3] = target: B1; assay: as above; conditions: both partners purified
[4] = target: B6; assay: as above; conditions: both partners purified
[5] = target: B4; assay: as above; conditions: both partners purified
[6] = target: B2; assay: as above; conditions: both partners purified

| Binder | stoichiometry N [1] | Kd [2] | koff [2] | kon [2] | Kd [3] | koff [3] | kon [3] | Kd [4] | koff [4] | kon [4] | other results |
| --- | --- | --- | --- | --- | --- | --- | --- | --- | --- | --- | --- |
| B1 | 2 | 3.4 nM | 0.0164 s⁻¹ | 5.07e+06 M⁻¹ s⁻¹ | – | – | – | – | – | – | – |
| B2 | – | – | – | – | 52.1 nM | 0.322 s⁻¹ | 9.26e+06 M⁻¹ s⁻¹ | – | – | – | – |
| B3 | – | – | – | – | 1 nM | 0.0138 s⁻¹ | 1.29e+07 M⁻¹ s⁻¹ | 1.6 nM | 0.0041 s⁻¹ | 2.59e+06 M⁻¹ s⁻¹ | – |
| B4 | 2 | – | – | – | – | – | – | – | – | – | – |
| B5 | – | – | – | – | 0.6 nM | 0.004 s⁻¹ | 6.48e+06 M⁻¹ s⁻¹ | 0.5 nM | 0.0038 s⁻¹ | 7.69e+06 M⁻¹ s⁻¹ | Kd [5]: 1.6 nM; koff [5]: 0.0064 s⁻¹; kon [5]: 4.28e+06 M⁻¹ s⁻¹ |
| B6 | 2 | 1.7 nM | 0.0084 s⁻¹ | 4.97e+06 M⁻¹ s⁻¹ | – | – | – | – | – | – | Kd [6]: 28.1 nM; koff [6]: 0.16 s⁻¹; kon [6]: 5.7e+06 M⁻¹ s⁻¹ |
